# From patent publication US20260193370A1 (SUZHOU SUNCADIA BIOPHARMACEUTICALS, published 2026)
# B1: Tanezumab (antibody, human IgG2, kappa, V domains shown)
# VH: QVQLQESGPGLVKPSETLSLTCTVSGFSLIGYDLNWIRQPPGKGLEWIGIIWGDGTTDYNSAVKSRVTISKDTSKNQFSLKLSSVTAADTAVYYCARGGYWYATSYYFDYWGQGTLVTVSS
# VL: DIQMTQSPSSLSASVGDRVTITCRASQSISNNLNWYQQKPGKAPKLLIYYTSRFHSGVPSRFSGSGSGTDFTFTISSLQPEDIATYYCQQEHTLPYTFGQGTKLEIKR
# Legend:
# [1] = target: T1, human NGF protein (Sino biological, 11050-HNAC) (human, UniProt P01138 122-241); assay: cell-based or functional assay
# [2] = target: T1, human NGF protein (Sino biological, …); assay: cell-based or functional assay; remark: listed apart in the source
# T1 sequence (P01138 122-241 limits assumed): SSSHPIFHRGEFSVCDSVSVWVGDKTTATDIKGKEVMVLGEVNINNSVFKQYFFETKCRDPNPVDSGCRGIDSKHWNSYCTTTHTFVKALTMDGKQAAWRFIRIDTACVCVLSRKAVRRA
binder,measurement,setting,value
B1,"TF-1 cell proliferation-inhibiting activity, IC50 (TF-1 cells with human NGF, Cell-titer Glo)",[1],0.759 nM
same,"TF-1 cell proliferation-inhibiting activity, fold relative to bispecific antibody 1",[2],~4.2 fold
